This is an account of results in the nanobody polyreactivity screen of Harvey et al. (2022).

This series is described as follows: yeast display, Sf9 membrane polyspecificity reagent, FACS + sequencing; frameworks hold sequencing errors. Summed up: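 Sorting gates, low and high (top ~1%), were placed on anti-HA fluorescence to track expression and on streptavidin fluorescence to track reagent binding. A clone's polyreactivity label is taken from the gate it came out of. The reagent was 10% biotinylated, detergent-solubilized Sf9 membrane, applied for 1 hour at 4 °C to galactose-induced yeast display cells.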
With “QGQLVESGGGLVQAGGSLRLSCAASGRIFVIYAMGWYRQAPGKERELVAAISSRGGTTYYADSVKGRFTISRDNAKNTVYLQMNSLKPEDTAGYYCNVARFYHIYDYWGQGTHVTVSS”, the “polyreactivity (PSR sort gate)” value is “high polyreactivity”. Regarding “QGQLVESGGGLVQAGGSLRLSCAASGRIFVTYAMGWYRQAPGKERELVATINSGGSTYYADSVKGRFTISRDNAKNTVYLQMNSLKPEDTAVYYCNTDFGQAHTLSWYEDMDYWGQGTQVTVSS”, the “polyreactivity (PSR sort gate)” value is “low polyreactivity”. In the case of “QGQLVESGGGLVQAGGSLRLSCAASGRIFYQNDMGWYIQAPGKERELVADIASGGSTYYADSVKGRFTISRDNAKNTVYLQMNSLKPEDTAVYYCASAVLYGDGWYYYWGQGTQVTVSS”, the “polyreactivity (PSR sort gate)” value is on record as “low polyreactivity”. With “QGQLVESGGGLVQAGGSLRLSCAASGRSVARYAMGGYRQAPGKERELVAAITVSGDNTYYADSVKGRFTISRDNAKNTVYLQMNSLKPEDTAVYYCAVRAVLLIGFFEYDYWGQGTQVTVSS”, the “polyreactivity (PSR sort gate)” value is given as “low polyreactivity”. On to “QGQLVESGGGLVQAGGSLRLSCAASGRTFKVYAMGWYRQAPGKERELVAAISFSGGSTYYADSVKGRFTISRDNAKNTVYLQMNSLKPEDTAVYYCATTYPGAIRDYWGQGTQVTVSS”, for which the “polyreactivity (PSR sort gate)” value is reported as “high polyreactivity”. In the case of “QGQLVESGGGLVQAGGSLRLSCAASGRTFRYNAMGWYRQAPGKERELVAAITWGGGSTDYADSVKGRFTISRDNAKNTVYLQMHSLKPEDTAVYYCNADYIGNYHSIYQYDYWGQGTQVTVSS”, the “polyreactivity (PSR sort gate)” value was “low polyreactivity”. For “QGQLVESGGGLVQAGGSLRLSCAASGRTFVRNAMGWSSQGPGKEREWVAAISSIGDSTYYAYSLKGRFTISRDNAKNTVYLQLNTLKPEDTAVYYCAAECVTSYYNYYHWGQGTQVTVSS” the value was “low polyreactivity”. For the sequence “QGQLVESGGGLVQAGGSLRLSCAASGSIFGENAMGWYRPAPGKERELVAAISSAGSTKYADSVKGRFTISRDNAKNTVYLQMNSLKPEDTAVYYCAAGYYRTSYPYSYYYWGQGTQVTVSS”, the “polyreactivity (PSR sort gate)” value is listed as “low polyreactivity”. Consider “QGQLVESGGGLVQAGGSLRLSCAASGSIFLGYAMGWYRQAPRKERELVAVITKSRGRTYYADSVKGRFTISRDNAKNTVYFQMNSLKPEDTAVYYCAKQPGSAYDYWGQGTQVTVSS”, for which the “polyreactivity (PSR sort gate)” value is on record as “high polyreactivity”. For “QGQLVESGGGLVQAGGSLRLSCAASGSIFRAYAMGWNRQAPGKERELVAAISWGGGSTSYADSVKGRFTISRDNAMNTVYLQMNSLKPEDTAVYYCAAELYLSRLRYWYDYWGHGTQVTVSS”, the “polyreactivity (PSR sort gate)” value is reported as “high polyreactivity”.

Turning to “QGQLVESGGGLVQAGGSLRLSCAASGSIFSHYAMGWYRQAPGKEMELVAAISRSGGSTYYADSVKGRFTISRDNAKNTVYLQMNCLKPEDTAVYYCAKEGDSGYWFDYWGQGTQVTVSS”, the “polyreactivity (PSR sort gate)” value is given as “low polyreactivity”. The result for “QGQLVESGGGLVQAGGSLRLSCAASGSIFVRNAMGWYRQAPGKERELVAADSVKGRFTISRDNAKNTVYLQMNSLKPEDTAVYYCNKDYIIRRGAIVYYGFDYWGHGTQVTVSS” reads “low polyreactivity”; that for “QGQLVESGGGLVQAGGSLRLSCAASGSSFANYDMGRYRQAPGKERELVAAITSDGSTYYADSVKGRFTISRDNAKNTVYLQMNSLKPEDTAVYYCAASTPSDAWVDDWGQGTQVTVSS”, “low polyreactivity”; that for “QGQLVESGGGLVQAGGSLRLSCAASGSTFGKYVMGWYRQAHGKERELVAAISRSGGSTYYADSVKGRFTISRDNAKNTVYLQLNSLKPDDTAVYYCAAYNGITSHLRFDYWGQGTQVTVSS”, “high polyreactivity”. Take “QGQLVESGGGLVQAGGSLRLSCAASGSTFGYNVMGWYRQAPGKERELVAAINYSGVRTYYADSVKGRFTISRDNAKNTVYLQMNSLKPEDTAVYYCNATPTRAVGPYQYNYWGQGTQVTVSS”: the “polyreactivity (PSR sort gate)” value is recorded as “high polyreactivity”. With “QGQLVESGGGLVQAGGSLRLSCAASGSTFRLYAMGWYRQAPGKERELVAAISQRGASTYADSVKGRFTISRDNAKNTLNLQMNSLKPEDTAFYYCSAVRNCRYWYRQYGFCGQGTQVTVSS”, the “polyreactivity (PSR sort gate)” value is “high polyreactivity”. For “QGQLVESGGGLVQAGGSLRLSCAASGSTYLGNDMAWYIQAPGKERELVATITGSSGSTYYADSVKGRFTISRDNAKNTVYLQMNSLKPEDTAVYYCNTVYNYWDCYDYWGQGTQVTVSS” the value was “low polyreactivity”; for “QGQLVESGGGLVQAGGSLRLSCAASVRTSVINAMGWYRQAPGKERELVAAITKRGGSTYYADSVKGRFTISRDIAKNTVYLQMNSLKPEDTEVYYCAKYPIYIQYDSWGQGTQVTVSS”, “high polyreactivity”. The result for “QGQLVESGGGLVQAGGSLRLSCAAYGRIFYVYAMGWYRQAPGKERELVATITSSGDGTYYADSVKGRFTISRDNAKNTGYLQMNSLIPEDTAVYYCAARSWPYSQTGKRFVEYYYWGQGTQVSVSS” reads “low polyreactivity”; that for “QGQLVESGGGLVQAGGSLRLSCADSGNTFNPNAMGWYRQAPGKERELVAVIRFRGVSKYYADSVKGRFTISRDNAKNSVYLQMNSLKPEDTAVYYCAADFLYYYLRYYFWGQGTQVTVSS”, “high polyreactivity”. On to “QGQLVESGGGLVQAGGSLRLSCAGSGRTFSSNAMGWYRQGRGKVRELVASISFRGGRTYYADSVKGRFTISRHNAKKTVYLQMNSLKPEDTAVYYCVSRTKRTGYGYWGQGTQVTVSS”, for which the “polyreactivity (PSR sort gate)” value was “high polyreactivity”. As to “QGQLVESGGGLVQAGGSLRLSCPASGNTFKYYAMGWYRQAPGKEWELVAAISYSGGSTYYADSVKGRFTISRDNAKNTVYLQMNSLKPEDTAVYYCAADPTNSYLEYDEWGQGTQVTVSS”, the “polyreactivity (PSR sort gate)” value was “low polyreactivity”. Regarding “QGQLVESGGGLVQAGGSLRLSSAASGSTFARYAMGWYRQAPGKERELVAVIRSGGSTNYADSVKGRFTISRDNAKNTVYLQMNSLKPEDTAGAADLWTLHRWATYGYWGQGTQVTVSS”, the “polyreactivity (PSR sort gate)” value is reported as “low polyreactivity”.

Consider “QGQLVESGGGLVQAGGSLRLTCSASGSTFDSYGMGWYRQAPGKERELVASISSRGGSTYYADSVKGRFTISRDTAKNTVYLQMNSLKPEDTAVYYCAADWLSWFHGYGMYYWGQGTQVTVSS”, for which the “polyreactivity (PSR sort gate)” value is reported as “low polyreactivity”. For the sequence “QGQLVESGGGLVQEGGSLRLSCAASGSTFKRYVMGWYRQAPGKERELVAAITWSGTRTYYADSVKGRFTISRDNAKNTVYLQMNSLKPVDTAVYYCAARLYGGYDWGQGTQVTVSS”, the “polyreactivity (PSR sort gate)” value is on record as “high polyreactivity”. Consider “QGQLVESGGRLVQAGGSLRLSCAASGFIFRSYAMGWYRQAPAKERELVAVISRRGVNTPYADSVKGRFTISRDTSKNTVYLQMNSLKAEDTAVYYCAKGLTALGDYWGQGTQVNVSS”, for which the “polyreactivity (PSR sort gate)” value is “high polyreactivity”. Take “QGQLVESGGVLVQGGGSLRLSCAASGSIFVYNAMGWSRQAPGKERELVAANTSSGASTYYADSVKGRFPISRDNAKNTVYLQMISLNPEDTDVYYCNAGADSTVGNYVTSFSQYDFWGQGTQVTVSS”: the “polyreactivity (PSR sort gate)” value is “low polyreactivity”. The result for “QGQLVQSGVGLVQAGGSLSLSCAASGIIFTWYDMGWYRQAPGKERELVAAISNSGGSTYYADSVKGRFTISRDNAKNTVYLQMNSLKPEDTAVYYCNAGSYVCEEDYWGQGTQVTVSS” reads “high polyreactivity”; that for “QGQPVESGGGLVQAGGILRLSCAASGFISGGNAMGWDRQAPGKEREFVAAIDNTGSTYYADSVKGRFTISRDNEKNTVYLQMISLKPEDTAVYYFNAEVTEDYVDNDYGGQGTQVTVSS”, “low polyreactivity”; that for “QGQRVESGGGLVQAGGSLRLSCAPSGRTFKYYAMGWYRQAPGKERELFAAISYTGGSTYFADSVMGRFTISRDNAKNTVYLQMNSLKPEDTAVYYCARSYYTNGNALKRDYWGQGTQVTVSS”, “high polyreactivity”. As for “QHQLVESGGGLVQAGASLRLSCAASGRTFFKNAKGWYRQAPGKERELVAGISRTGSTNYADSVKGRFTISSDNAKNTVYLEMNSLKPEDTAVYYCAAGVLGLPLRHRYDYWGQGTQVTVSS”, the “polyreactivity (PSR sort gate)” value is recorded as “low polyreactivity”. As to “QIQLVESGGGLDQAGGSLRISCAASAYTYVDYIGCYIPAPGKERELVADIDNSGGGTYYADSVTGRFTISRDNAKNTVYFLMNSLKAEDTAVYYCAAEFPYDDYYSNRDYDYWGQGTQVTVSS”, the “polyreactivity (PSR sort gate)” value is reported as “low polyreactivity”. For the sequence “QIQLVESGGGLVQAGGSLRLSCAASGSIFSGYAMGWYRQAPGKERELVAAITSGGSTDYADSVKGRFTISRDNAKNTVYLQMNSLKPEDTAVYYCAAEGGYSSYGYDYWGQGTQVTVSS”, the “polyreactivity (PSR sort gate)” value is given as “low polyreactivity”.

Regarding “QLHLVESGGGLVQAGGSLRLSCAASGITFAGYALGWYRQAPGKERELVASITWGGGRTYYADSVKGRFTSSRDNAKNTVYLQMNSLKPEATAVYYCATRRRPQYNKYDYWGQGTQLTVSS”, the “polyreactivity (PSR sort gate)” value is given as “high polyreactivity”. For “QLQHVESGGGLVQAGGSLRLSCAASGYIFPVNAMGSYRQAPGKERELVASLTSGGSTYYADSVKGRFTISRDNAKNTVYLQMNSLKPEDTAVYYCAAQLGYAKPYVYGEWYYYWGQGNQVTVSS”, the “polyreactivity (PSR sort gate)” value is listed as “low polyreactivity”.

In the case of “QLQIVESGGGLVQAGGSLRISCAASVFTFCKYAMGWYRPAPGKERELVAAISVSGGRTYSADSVKGRFTISRDNAKNTVYLQMNSLKPEDTEVYYCNATQWRPYVGGEYWGQGTQVTVSS”, the “polyreactivity (PSR sort gate)” value is listed as “high polyreactivity”. Regarding “QLQLEESGGGLVQAGASLPLSCAASGLTFVEYAMGCYRQAPGKEREFVAAIRSRGGSTYYADSVKGRFTISRDNAKTTVYLQMNSLKPEDTAVYYCNADGYFWGQGTQVTVSS”, the “polyreactivity (PSR sort gate)” value is on record as “low polyreactivity”. On to “QLQLEESGGGLVQAGGSLRLSCAASGRIFNYYAMGWYRPAPGKEKELVAAISTVCGSTYYADSVKGRFTISRDKAKNTVYIQMHSLKPEDTSVYYCAAYQYYDFSYSYDYWGQGTQVTVSS”, for which the “polyreactivity (PSR sort gate)” value is listed as “low polyreactivity”. On to “QLQLQESGGGLVQAGGSLRLTCAASGYIFPTAIMRWYRQAPGTERKLVAASNPGSNTYYADSVKGRFTFSLDNAKNTVYLQMNSLTPEDAAVYSCAVSIWLDGTLDFWGQGTQVTVSS”, for which the “polyreactivity (PSR sort gate)” value is given as “low polyreactivity”.

Consider “QLQLVDSGGGLVQAGGSLRLSCAASGKTISSYAMGWYRQAPGKEREFVAAISRGARTYYADSVKGRFTISRDNAKNTVYLQMNSLKPEDTAVYYCATRWPHYGGYYYWGQGTQVTVSS”, for which the “polyreactivity (PSR sort gate)” value was “high polyreactivity”.

In the case of “QLQLVDSGGGLVQAGGSLRLSCAASGSIFGAYAMGWYRHAPGKERELVAAINYGGATTYYADSVKGRFTISRDNAKNTVYLQMNSLIPEDTAVYYCAADYLYAYGDVADVYGWYAYYYWGQGTQVTVSS”, the “polyreactivity (PSR sort gate)” value is on record as “low polyreactivity”.
